Where a chain is given by its changes, count along the chain named. Bounds are passed on as bounds.

What is called EC50 is the concentration needed to bring the measured effect to its halfway point. The Kd is the constant that tells how readily two partners part at equilibrium. For orientation: koff means a measure of how fast the partners let go of each other. As usually defined, the kon is a measure of how fast the partners come together.

First the molecules themselves.
T1: murine ApoE (mouse, UniProt P08226 19-311)
T1 sequence (looked up): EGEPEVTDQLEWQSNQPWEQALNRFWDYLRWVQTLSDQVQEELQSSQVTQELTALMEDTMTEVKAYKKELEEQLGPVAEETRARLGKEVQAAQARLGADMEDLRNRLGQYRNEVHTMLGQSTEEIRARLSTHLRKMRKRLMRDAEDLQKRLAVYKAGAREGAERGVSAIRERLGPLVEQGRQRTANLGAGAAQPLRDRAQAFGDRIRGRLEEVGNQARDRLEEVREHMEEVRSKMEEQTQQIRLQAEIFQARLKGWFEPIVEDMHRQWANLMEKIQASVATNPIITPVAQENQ

T2: ApoE4 amino acids 1-164, expressed on yeast (human, UniProt P02649 19-182)
T2 construct: with myc tag, on yeast cells; range counts on the mature protein; also called up to helix 4; not shown: myc tag and yeast surface-display partner
T2 chain: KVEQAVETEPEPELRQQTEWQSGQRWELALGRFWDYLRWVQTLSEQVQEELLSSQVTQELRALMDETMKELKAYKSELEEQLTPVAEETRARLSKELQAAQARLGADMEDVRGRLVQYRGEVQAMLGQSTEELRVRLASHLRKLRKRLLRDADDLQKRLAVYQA

T3: ApoE4 amino acids 1-210, expressed on yeast (human, UniProt P02649 19-228)
T3 construct: with myc tag, on yeast cells; range counts on the mature protein; also called N terminal domain; not shown: myc tag and yeast surface-display partner
T3 chain: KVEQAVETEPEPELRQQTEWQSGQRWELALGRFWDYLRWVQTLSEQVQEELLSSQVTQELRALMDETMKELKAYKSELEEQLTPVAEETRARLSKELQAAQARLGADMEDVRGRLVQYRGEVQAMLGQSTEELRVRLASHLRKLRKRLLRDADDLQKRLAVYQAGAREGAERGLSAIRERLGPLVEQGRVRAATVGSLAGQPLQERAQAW

T4: ApoE4 amino acids 24-164, expressed on yeast (human, UniProt P02649 42-182)
T4 construct: with myc tag, on yeast cells; range counts on the mature protein; also called helix1 + 2 + 3 + 4
T4 chain: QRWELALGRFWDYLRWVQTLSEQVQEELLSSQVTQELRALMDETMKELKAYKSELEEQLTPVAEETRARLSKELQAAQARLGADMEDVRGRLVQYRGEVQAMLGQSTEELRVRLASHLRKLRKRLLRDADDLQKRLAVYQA

T5: ApoE4 amino acids 54-164, expressed on yeast (human, UniProt P02649 72-182)
T5 construct: with myc tag, on yeast cells; expression in yeast printed as Low; range counts on the mature protein; also called helix2 + 3 + 4
T5 chain: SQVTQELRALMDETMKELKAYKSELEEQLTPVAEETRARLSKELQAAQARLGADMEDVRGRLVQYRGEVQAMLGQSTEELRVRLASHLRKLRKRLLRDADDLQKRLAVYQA

B1: HJ152 (antibody, V domains shown)
VH: EVKLEESGGGLVQPGGSMKLSCAASGFSFSDAWMDWVRQSPEKGLEWVAEIRNKADNHATFYAESVKGRFTISRDDSKSSVYLQMNSLRAEDSGIYYCLLWDYWGQGTTLTVSS
VL: DIVMSQSPSSLAVSAGEKVTMSCKSSQSLLNSRTRKHFLAWYQQKPGQSPKVLIYWASSRESGVPDRFTGSGSGTDFTLTISSVQAEDLAVYYCKQSCNLPWTFGGGTKLEIKR
notes: murine monoclonal antibody from hybridoma; also called HJ152B (biotinylated)
B2: HJ1514 (antibody, V domains shown)
VH: B1 VH with K3N, S28T, F61Y, D75N, A90T, S93T, L99V
VL: B1 VL with S22T, H37N, A40T, Q43R, V52P, T69A, C98Y
notes: murine monoclonal antibody from hybridoma
B3: HJ159 (antibody, V domains shown)
VH: QVQLQQSGPDLVKPGASVKISCKASGYTFIDYYINWAKQRPGQGLEWIGWIFPGSGSTYYNEKFKGKATLTVDKSSSTAYMFLSSLTSEDSAVFFCARYYGSSPFAYWGQGTLVTVSA
VL: DVLMTQTPLSLPVSLGDQASISCRSSQNIVYSNGNTYLEWYLQKPGQSPKLLIYKVSNRFSGVPDRFSGSGSGTYFTLKISRVEAEDLGIYYCFQGSHVPYTFGGGTKLEIKR
notes: as for B2
B4: HJ1513 (antibody, V domains shown)
VH: QIQLQQSGPELVKPGASVKISCKASGYTFTDYYINWVRQRPGQGLEWIGWIYPESFNTYYNEKFKGKATLTVDTSSNTAYMQLSSLTSEDSAVYFCARYYVSSPFAYWGQGTLVTVSA
VL: B3 VL with V30I, Y31H, Y41F, Y75D, I90V
notes: as for B2
B5: HJ1518 (antibody, V domains shown)
VH: B3 VH with D10E, I30S, A37V, T58S, S77R, F82L, F94Y, A118T
VL: B3 VL with T7S, N28S, Y31H, S32R, Y75D, I90V, K112R
notes: as for B2
B6: HJ158 (antibody, V domains shown)
VH: EVQLMESGGDLVKPGGSLELSCTVSGFTFNNYAMSWIRQTPEKRLEWVATISDGGTNTYFPDNVKGRFTISRDNAKSNLYLQMSHLQSEDTAMYYCAREGRGTWFAYWGQGTLVTVSA
VL: DVVMTQTPLSLPVSLGDQASISCRSSQSLVHINGNTYLHWSLQKPGQSPKLLIYKVSNRFSGVPDRFSGSGSGTDFTLKISRVEAEDLGIYFCSQNTHLPLTFGAGTKLELKR
notes: as for B2
B7: HJ1531 (antibody, V domains shown)
VH: EVQFVESGGGLVQPKGSLKLSCAASGFSFNIYAMNWVRQAPGKGLEWVARIRSKSNDYATFYADSVKDRFTISRDDSESMLYLQMNNLKIEDTAMYYCVSPYDGALAYWGQGTSVTVSS
VL: DIQMNQSPSSLFASLGDTITITCHASQNINVWLSWYQQKPGNIPKLLIYKASNLHTGVSSRFSGSGSGTDFTLTINNLQPEDIATYYCQQGQSYPLTFGAGTKLELKR
notes: as for B2
B8: HJ1536 (antibody, V domains shown)
VH: EVQFVESGGGLVQPKGSLKLSCEVSGFSFNTYAMNWVRQAPGKGLEWVARIRNKTNNYATFYADSVKDRFTISRDDSKNTLYLQMNNLKAEDTAMYFCASPYDGSFAYWGQGTLVTVSA
VL: B7 VL with F12S, V31I, S59P, D70G, N76S, N77S, Q92H, A100G, L106I
notes: as for B2

The target in one assay is T1, murine ApoE. Kind of assay: Western blot of mouse brain lysates. From the text: Brain lysates from apoE KO mice or mice expressing human apoE3, human apoE4 or murine apoE were immunoblotted with HJ151, HJ152, HJ153, and HJ154. A commercial apoE antibody GA-50 was used as a positive control.
In general terms: A western blot detects proteins with antibodies after separation by electrophoresis.
Regarding B1, the binding result was “no binding”.

The target in another assay is T2, ApoE4 amino acids 1-164, expressed on …. Kind of assay: yeast display of myc-tagged ApoE4 fragment, antibody staining. The protocol: (§1) Epitope binding of various anti-ApoE antibodies was evaluated multiple ways. Different sequences of human ApoE were expressed on the surface of yeast by yeast display using different plasmids. Different anti-ApoE antibodies were then assessed to determine binding to the different ApoE sequences by immunofluorescence of the yeast cell surface (Table 4). Because none of the anti-ApoE antibodies tested here recognize murine ApoE, the epitope was further narrowed down by comparison of the murine and human ApoE sequences as shown in Tables 4 and 5. DNA constructs containing different regions of ApoE4 with myc tag were transformed into yeast cells. Yeast cells were incubated with HJ15x to detect binding or anti-myc antibody to detect expression.
As for B1, the binding result was “binds”.
The same measure, in the same setting: the value for B2 was “binds”.
For B3, the binding result was “binds”.
The same measure, in the same setting: the value for B4 was “binds”.
The same measure, in the same setting: the value for B5 was “binds”.

The target in another assay is T3, ApoE4 amino acids 1-210, expressed on …. The assay is described as above. The protocol: as §1
Consider B1, for which the binding result was “binds”.
On the same count and under the same terms, the value for B2 was “binds”; that for B3 was “binds”.
Consider B4, for which the binding result is “binds”.
Still for that read-out and setting: the value for B5 was “binds”.

The target in another assay is T4, ApoE4 amino acids 24-164, expressed on …. The assay is described as above. Here is the method: as §1
For B1, the binding result is given as “binds”.
Regarding B2, the binding result is reported as “binds”.
Same read-out and setting: the value for B3 was “binds”.
On the same count and under the same terms, the value for B4 was “binds”; that for B5 was “binds”.

The next assay has as its target T5, ApoE4 amino acids 54-164, expressed on …. Described as above. Here is the method: as §1
Consider B1, for which the binding result is listed as “binds”.
Same read-out and setting: the value for B2 was “binds”.
As for B3, the binding result is reported as “binds”.
Still for that read-out and setting: the value for B4 was “binds”; that for B5 was “binds”.

For a further assay, the target named is T6, recombinant alipidated human ApoE4 (human, UniProt P02649 19-317).
T6 construct: mature; full length recombinant protein made in E. coli or bought; biotinylated for SPR; position 112 is counted on the mature protein, not on the precursor entry; also called recApoE; non-lipidated ApoE4
The experiment in a line: direct ELISA on coated recombinant alipidated ApoE (0.5 ug/ml). Here is the method: (§2) ELISA dose response curves were generated for several anti-ApoE antibodies. Briefly, plates were coated overnight with full length recombinant alipidated ApoE2, ApoE3, or ApoE4 (0.5 μg/ml). The following days, plates were washed, blocked and then incubated with an anti-ApoE antibody. A goat, anti-mouse IgG-HRP antibody was used for secondary detection. Recombinant alipidated ApoE was either expressed solubly in E. coli and then purified, or purchased from a commercial supplier.
Background: An ELISA detects its analyte on a solid surface through an enzyme-linked reagent.
Target sequence in this assay (P02649 19-317 C130R): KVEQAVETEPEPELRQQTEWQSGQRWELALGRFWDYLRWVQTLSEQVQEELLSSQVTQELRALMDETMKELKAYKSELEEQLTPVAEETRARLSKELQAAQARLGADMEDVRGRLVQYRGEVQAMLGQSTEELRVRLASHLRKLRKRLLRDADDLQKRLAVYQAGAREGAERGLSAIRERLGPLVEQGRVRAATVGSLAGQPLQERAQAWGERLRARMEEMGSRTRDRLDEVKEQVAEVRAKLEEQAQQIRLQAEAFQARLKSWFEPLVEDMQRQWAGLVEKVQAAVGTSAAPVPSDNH
Turning to B6, the EC50 is 0.06 nM.
On the same count and under the same terms, the value for B1 was 0.35 nM; that for B2 was 0.04 nM.
With B7, the EC50 turned out to be 0.04 nM.
On to B8, for which the EC50 was 0.05 nM.
Still for that read-out and setting: the value for B3 was 0.32 nM; that for B4 was 0.46 nM.
Take B5: the EC50 came out at 0.06 nM.

The target in the next assay is T7, recombinant alipidated human ApoE3 (human, UniProt P02649 19-317).
T7 construct: mature; full length recombinant protein made in E. coli or bought
T7 sequence (P02649 19-317): as the sequence (P02649 19-317 C130R) above, with R112C counted along it
The assay is described as above. The protocol: as §2
On to B6, for which the EC50 came to 0.09 nM.
Same read-out and setting: the value for B1 was 0.13 nM.
The same measure, in the same setting: the value for B2 was 0.23 nM; that for B7 was 0.05 nM.
Still for that read-out and setting: the value for B8 was 0.1 nM.
For B3, the EC50 stood at 1.9 nM.
As for B4, the EC50 came to 1.26 nM.
As to B5, the EC50 worked out at 0.258 nM.

A further assay addresses T8, recombinant alipidated human ApoE2 (human, UniProt P02649 19-317).
T8 construct: mature; full length recombinant protein made in E. coli or bought
Described as above. The protocol: as §2
As to B6, the EC50 was 0.07 nM.
On the same count and under the same terms, the value for B2 was around 100 nM; that for B7 was 0.05 nM.
The same measure, in the same setting: the value for B8 was 0.09 nM; that for B4 was around 100 nM.

Another assay deals with T6, recombinant alipidated human ApoE4. The experiment in a line: SPR (Biacore T200), biotinylated ApoE4 captured on anti-biotin mAb chip, antibody injected, 1:1 fit. The protocol:
The affinity of several anti-ApoE antibodies for ApoE4 was determined by surface plasmon resonance using a BIAcore T200. Anti-biotin monoclonal mouse antibody was immobilized on a Biacore Series S CM5 sensor chip. Biotinylated recombinant alipidated ApoE4 was then captured on to the chip. Serial dilutions of each antibody were injected at a flow rate of 30 μl/min. Each sample was analyzed, for example, with 3-minute association and 10-minute dissociation. After each injection the chip was regenerated using 3 M MgCl₂ or another appropriate buffer. Binding response was corrected by subtracting the response units (RUs) from a flow cell capturing an irrelevant IgG at similar density. A 1:1 Languir model of simultaneous fitting of Kₒₙ and Koff was used for kinetics analysis. Recombinant alipidated ApoE4 was either expressed in soluble form in E. coli and then purified, or purchased from a commercial supplier.
On the technique in general: In SPR one partner is held on a chip, and binding of the other changes the refractive index at the surface.
Take B1: the Kd was determined as 249 nM, the off-rate (koff) is 0.00116 s⁻¹ and the kon was found to be 4660 M⁻¹ s⁻¹.
For the molecule B2, the Kd is below 0.781 nM, the koff was below 1e-05 s⁻¹ and the kon turned out to be 12800 M⁻¹ s⁻¹.
Turning to B3, the Kd turned out to be 391 nM, the koff worked out at 0.0074 s⁻¹ and the association rate constant (kon) came to 18900 M⁻¹ s⁻¹.
In the same order, the values of B4 are 135 nM, 0.000858 s⁻¹ and 6360 M⁻¹ s⁻¹.
In the same order, the values of B5 are 206 nM, 0.00946 s⁻¹ and 45900 M⁻¹ s⁻¹.

The values are drawn from patent US20250145697A1 (WASHINGTON UNIVERSITY, published 2025).
